Laboratory results as given in patent US20220056139A1.

Biological target: HLA-DR (human)
Experiment: flow cytometry on Raji cells, APC mouse anti-human IgG (FIG. 21B)

fold higher ED50 than chLym-1: 2 fold
B1: huLym-1-B antibody (antibody, human IgG1, V domains shown)
VH: EVQLVESGGGLVQPGRSLRLTCTASGFSLTSYGVHWVRQPPGKGLEWLAVIWSDGSTTYNSALKSRLTISKDNSKSQVYLQMNSLRAEDTAVYYCARHYGSTLAFASWGQGTLVTVSS
VL: DIQMTQSPSSLSASVGDRVTITCRASVNIYSYLAWYQQKPGKAPNLLIYNAKILAEGVPSRFSGSGSGTDFTLTISSLQPEDFASYYCQHHYGTFTFGQGTKVEIK
